Reference: patent US9206432B2, “Sulfonylurea-responsive repressor proteins” (priority 2008, dated 2015)
Like-named read-outs stand apart in the source and are kept apart here.

Tested on: lacZ under control of the tetA promoter (PtetA) in E. coli KM3
Assay type: cell-based
Settings: for relative β-galactosidase activity, inducer atc: anhydrotetracycline (0.4 μM)
[1] = Table 4, chlorimuron 20 ppm, 48 hrs at 30° C.
[2] = Table 4, chlorsulfuron 20 ppm, 48 hrs at 30° C.
[3] = Table 4, ethametsulfuron 20 ppm, 48 hrs at 30° C.
[4] = Table 4, metsulfuron 20 ppm, 48 hrs at 30° C.
[5] = Table 4, nicosulfuron 20 ppm, 48 hrs at 30° C.
[6] = Table 4, rimsulfuron 20 ppm, 48 hrs at 30° C.
[7] = Table 4, sulfometuron 20 ppm, 48 hrs at 30° C.
[8] = Table 4, thifensulfuron 20 ppm, 48 hrs at 30° C.
[9] = Table 4, tribenuron 20 ppm, 48 hrs at 30° C.
[10] = Table 6, reverse repressor hits
[11] = Table 6, reverse repressor hits, chlorimuron, same plate assay format (20 ppm)
[12] = Table 6, reverse repressor hits, chlorsulfuron, same plate assay format (20 ppm)
[13] = Table 6, reverse repressor hits, ethametsulfuron, same plate assay format (20 ppm)
[14] = Table 6, reverse repressor hits, metsulfuron, same plate assay format (20 ppm)
[15] = Table 6, reverse repressor hits, nicosulfuron, same plate assay format (20 ppm)
[16] = Table 6, reverse repressor hits, rimsulfuron, same plate assay format (20 ppm)
[17] = Table 6, reverse repressor hits, sulfometuron, same plate assay format (20 ppm)
[18] = Table 6, reverse repressor hits, thifensulfuron, same plate assay format (20 ppm)
[19] = Table 6, reverse repressor hits, tribenuron, same plate assay format (20 ppm)

B1: L1-7: SU-responsive TetR(B) variant, library L1 hit, SEQ ID NO: 4 (protein)
chain: MGSRLDKSKVINSALELLNEVGIEGLTTRKLAQKLGVEQPTLYWHVKNKRALLDALAIEMLDRHNTHFCPLEGESWQDFLRNNAKSWRCALLSHRDGAKVVLGTAITEKQYETHENPLAFLCQQGFSLENALYAIAAVRRFTLGCVLVDQERQVAKEERETPTTDSMPPLLRQASELQDHQGAEPAFLFGLELIICGLEKQLKCERGS
modifications: Sulfonylurea responsive repressor L1-07
relative β-galactosidase activity, inducer Ci [1]: 16.5 | relative β-galactosidase activity, inducer Cs [2]: 3.1 | relative β-galactosidase activity, inducer Es [3]: 0.1 | relative β-galactosidase activity, inducer Ms [4]: 0.2 | relative β-galactosidase activity, inducer Ns [5]: 0.1 | relative β-galactosidase activity, inducer Rs [6]: 0.2 | relative β-galactosidase activity, inducer Sm [7]: 6.4 | relative β-galactosidase activity, inducer Ts [8]: 0.1 | relative β-galactosidase activity, inducer Tb [9]: 0.2

B2: L1-36: library L1 hit with reverse repressor activity (SEQ ID NO: 1206-1213) (protein)
chain: MGSRLDKSKVINSALELLNEVGIEGLTTRKLAQKLGVEQPTLYWHVKNKRALLDALAIEMADRHHTHFCPLEGESWQDFLRNAAKSMRCALLSHRDGAKVRLGTAWTEKQYETHENVLAFLCQQGFSLENALYALKAVSGFTLGCVLKDQEMQVAKEERETPTTDSMPPLLRQATELVDHQGAEPAFLFGLELIICGLEKQLKCESGS
modifications: rSuR L1-36
relative β-galactosidase activity, inducer atc [10]: 1.70 | relative β-galactosidase activity, inducer Ci [11]: 0.21 | relative β-galactosidase activity, inducer Cs [12]: 0.24 | relative β-galactosidase activity, inducer Es [13]: 0.20 | relative β-galactosidase activity, inducer Ms [14]: 0.38 | relative β-galactosidase activity, inducer Ns [15]: 1.81 | relative β-galactosidase activity, inducer Rs [16]: 1.84 | relative β-galactosidase activity, inducer Sm [17]: 0.50 | relative β-galactosidase activity, inducer Ts [18]: 0.48 | relative β-galactosidase activity, inducer Tb [19]: 0.57

B3: L1-39: library L1 hit with reverse repressor activity (SEQ ID NO: 1206-1213) (protein)
chain: MGSRLDKSKVINSALELLNEVGIEGLTTRKLAQKLGVEQPTLYWHVKNKRALLDALAIEMMDRHQTHFCPLEGESWQDFLRNTAKSYRCALLSHRDGAKVILGTRWTEKQYETRENVLAFLCQQGFSLENALYAWAAVGPFTLGCVLRDQERQVAKEERETPTTDSMPPLLRQALELMDHQGAEPAFLFGLELIICGLEKQLKCESGS
modifications: rSuR L1-39
relative β-galactosidase activity, inducer atc [10]: 4.92 | relative β-galactosidase activity, inducer Ci [11]: 0.49 | relative β-galactosidase activity, inducer Cs [12]: 0.89 | relative β-galactosidase activity, inducer Es [13]: 0.60 | relative β-galactosidase activity, inducer Ms [14]: 0.75 | relative β-galactosidase activity, inducer Ns [15]: 3.03 | relative β-galactosidase activity, inducer Rs [16]: 4.72 | relative β-galactosidase activity, inducer Sm [17]: 0.91 | relative β-galactosidase activity, inducer Ts [18]: 1.42 | relative β-galactosidase activity, inducer Tb [19]: 0.97

B4: L1-41: library L1 hit with reverse repressor activity (SEQ ID NO: 1206-1213) (protein)
chain: MGSRLDKSKVINSALELLNEVGIEGLTTRKLAQKLGVEQPTLYWHVKNKRALLDALAIEMLDRNQTHFCPLEGESWQDFLRNNAKSWRCALLSHRDGAKVMLGTRNTEKQYETAENGLAFLCQQGFSLENALYACRAVWTFTLGCVLDDQETQVAKEERETPTSDSMPPLLRQAMELKDHQGAEPAFLFGLELIICGLEKQLKCESGS
modifications: rSuR L1-41
relative β-galactosidase activity, inducer atc [10]: 4.21 | relative β-galactosidase activity, inducer Ci [11]: 0.39 | relative β-galactosidase activity, inducer Cs [12]: 0.61 | relative β-galactosidase activity, inducer Es [13]: 0.18 | relative β-galactosidase activity, inducer Ms [14]: 0.56 | relative β-galactosidase activity, inducer Ns [15]: 2.75 | relative β-galactosidase activity, inducer Rs [16]: 4.05 | relative β-galactosidase activity, inducer Sm [17]: 0.67 | relative β-galactosidase activity, inducer Ts [18]: 1.46 | relative β-galactosidase activity, inducer Tb [19]: 1.41

B5: L1-20: SU-responsive TetR(B) variant, library L1 hit, SEQ ID NO: 6 (protein)
chain: MGSRLDKSKVINSALELLNEVGIEGLTTRKLAQKLGVEQPTLYWHVKNKRALLDALAIEMMDRHQTHFCPLEGESWQDFLRNNAKSMRCALLSHRDGAKVFLGTAWTEKQYETVENLLAFLCQQGFSLENALYALNAVATFTLGCVLWDQEKQVAKEERETPTTDSMPPLLRQAHELGDHQGAEPAFLFGLELIICGLEKQLKSESGS
modifications: Sulfonylurea responsive repressor L1-20
relative β-galactosidase activity, inducer Ci [1]: 13.5 | relative β-galactosidase activity, inducer Cs [2]: 22.0 | relative β-galactosidase activity, inducer Es [3]: 15.0 | relative β-galactosidase activity, inducer Ms [4]: 12.4 | relative β-galactosidase activity, inducer Ns [5]: 1.6 | relative β-galactosidase activity, inducer Rs [6]: 2.0 | relative β-galactosidase activity, inducer Sm [7]: 6.0 | relative β-galactosidase activity, inducer Ts [8]: 2.6 | relative β-galactosidase activity, inducer Tb [9]: 2.6

B6: L1-18: library L1 hit with reverse repressor activity (SEQ ID NO: 1206-1213) (protein)
chain: MGSRLDKSKVINSALELLNEVGIEGLTTRKLAQKLGVEQPTLYWHVKNKRALLDALAIEMLDRHLTHFCPLEGESWQDFLRNNAKSMRCALLSHRDGAKVWLGTGFTEKQYETKENRLAFLCQQGFSLENALYAIRAVSRFTLGCVLQDQEPQVAKEERETPTTDSMPPLLRQAVELFDHQGAEPAFLFGLELIICGLEKQLKCESES
modifications: rSuR L1-18
relative β-galactosidase activity, inducer atc [10]: 2.35 | relative β-galactosidase activity, inducer Ci [11]: 0.36 | relative β-galactosidase activity, inducer Cs [12]: 1.22 | relative β-galactosidase activity, inducer Es [13]: 0.37 | relative β-galactosidase activity, inducer Ms [14]: 0.79 | relative β-galactosidase activity, inducer Ns [15]: 1.44 | relative β-galactosidase activity, inducer Rs [16]: 2.55 | relative β-galactosidase activity, inducer Sm [17]: 0.94 | relative β-galactosidase activity, inducer Ts [18]: 1.13 | relative β-galactosidase activity, inducer Tb [19]: 1.65

B7: L1-38: SU-responsive TetR(B) variant, library L1 hit (protein)
chain: MGSRLDKSKVINSALELLNEVGIEGLTTRKLAQKLGVEQPTLYWHVKNKRALLDALAIEMADRHHTHFCPLEGESWQDFLRNNAKSMRCALLSHRDGAKVWLGTAWTEKQYETTENMLAFLCQQGFSLENALYAWRAVTMFTLGCVLRDQEWQVAKEERETPTTDSMPPLLRQALELGDHQGAEPAFLFGLELIICGLEKQLKCESGS
modifications: Sulfonylurea responsive repressor L1-38
relative β-galactosidase activity, inducer Ci [1]: 15.3 | relative β-galactosidase activity, inducer Cs [2]: 14.0 | relative β-galactosidase activity, inducer Es [3]: 14.8 | relative β-galactosidase activity, inducer Ms [4]: 14.7 | relative β-galactosidase activity, inducer Ns [5]: 8.7 | relative β-galactosidase activity, inducer Rs [6]: 9.5 | relative β-galactosidase activity, inducer Sm [7]: 18.3 | relative β-galactosidase activity, inducer Ts [8]: 16.7 | relative β-galactosidase activity, inducer Tb [9]: 15.8

B8: L1-2: SU-responsive TetR(B) ligand binding domain variant, library L1 hit, SEQ ID NO: 3 (protein)
chain: MGSRLDKSKVINSALELLNEVGIEGLTTRKLAQKLGVEQPTLYWHVKNKRALLDALAIEMLDRHATHFCPLEGESWQDFLRNNAKSFRCALLSHRDGAKVCLGTAVTEKQYETMENILAFLCQQGFSLENALYARRAVIAFTLGCVLWDQEYQVAKEERETPTTDSMPPLLRQARELIDHQGAEPAFLFGLELIICGLEKQLKCESGS
modifications: Sulfonylurea responsive repressor L1-02
relative β-galactosidase activity, inducer Ci [1]: 13.6 | relative β-galactosidase activity, inducer Cs [2]: 4.1 | relative β-galactosidase activity, inducer Es [3]: 5.8 | relative β-galactosidase activity, inducer Ms [4]: 1.9 | relative β-galactosidase activity, inducer Ns [5]: 1.3 | relative β-galactosidase activity, inducer Rs [6]: 1.3 | relative β-galactosidase activity, inducer Sm [7]: 4.7 | relative β-galactosidase activity, inducer Ts [8]: 1.6 | relative β-galactosidase activity, inducer Tb [9]: 1.7

B9: L1-21: library L1 hit with reverse repressor activity (SEQ ID NO: 1206-1213) (protein)
chain: MGSRLDKSKVINSALELLNEVGIEGLTTRKLAQKLGVEQPTLYWHVKNKRALLDALAIEMLDRHATHFCPLEGESWQDFLRNNAKSFRCALLSHRDGAKVCLGTAGTEKQYETLENCLAFLCQQGFSLENALYARSAVVCFTLGCVLFDQEMQVAKEERETPTTDSMPPLLRQAAELLDHQGAEPAFLFGLELIICGLEKQLKCESGS
modifications: rSuR L1-21
relative β-galactosidase activity, inducer atc [10]: 2.81 | relative β-galactosidase activity, inducer Ci [11]: 0.07 | relative β-galactosidase activity, inducer Cs [12]: 0.89 | relative β-galactosidase activity, inducer Es [13]: 0.61 | relative β-galactosidase activity, inducer Ms [14]: 0.89 | relative β-galactosidase activity, inducer Ns [15]: 2.74 | relative β-galactosidase activity, inducer Rs [16]: 2.31 | relative β-galactosidase activity, inducer Sm [17]: 2.39 | relative β-galactosidase activity, inducer Ts [18]: 0.79 | relative β-galactosidase activity, inducer Tb [19]: 2.13
